Assay results from patent US5298404.

What was measured:
[1] = system: HpaI restriction endonuclease (recombinant) (Haemophilus parainfluenzae); assay: cleavage_in_vitro; details: assay as for native enzyme; Mg2+, 37 C
[2] = system: HpaI restriction endonuclease (native) (Haemophilus parainfluenzae); assay: cleavage_in_vitro; details: 10 mM Tris pH 7.5, 10 mM MgCl2, 100 mM NaCl, 37 C

Work on phage lambda DNA yielded an activity [1] of 250000 units/mg and an activity [2] of 250000 units/mg.
